Assay results taken from the Human Domainome abundance scans (Beltran et al. 2025).

B1: Zinc finger homeobox protein 4, residues 2086 to 2141; numbered along this chain, Q86UP3 (parent)
chain: RPRTRITDDQLKILRAYFDINNSPSEEQIQEMAEKSGLSQKVIKHWFRNTLFKERQ

Variants of: B1
Test: abundance fitness (aPCA) (normalised: wild type 0, dead -1); higher = more abundant; growth selection in yeast, the domain comes from the species named
Settings: Homo sapiens

Abundance fitness of substitutions, site by site:
Q28: V -0.033; S -0.095; E -0.155; T -0.034; G -0.178; C -0.244; A -0.092; N -0.329; Y -0.236; K 0.064; M -0.153; R 0.037; W -0.38; L -0.102; P -0.533; F -0.416; D -0.12; I 0.06; H -0.046
S36: E -0.244; H -0.367; G -0.28; A -0.06; F -0.357; I -0.082; D -0.857; K -0.824; C -0.002
I20: E 0.015; T 0.077; C -0.095; Q 0.054; G -0.03; A 0.105; R -0.007; D -0.276; N 0.03; M -0.007; L -0.051; V 0.008; F -0.006; K 0.153; Y -0.113; P 0.022; H -0.134; W -0.273
Q30: I 0.196; T -0.025; D -0.495; C -0.275; G -0.116; H -0.072; S -0.159; K 0.146; N -0.08; W -0.349; F -0.441; E -0.154; A -0.019; L 0.031
K35: M -0.304; N -0.265; V -0.418; F -0.415; I -0.518; P -1.09; G -0.242; E -0.215; Y -0.537; C -0.459; A -0.247; W -0.615; H -0.349; Q -0.18; L -0.261; D -0.375; S -0.192
I29: M -0.081; C -0.149; A -0.376; G -0.605; P -0.814; L 0.002; F -0.02; Q -0.147; N -0.462; T -0.266; H -0.347; W -0.16; D -0.744; E -0.025; K -0.226; R -0.21; Y 0.048
E31: H -0.109; Y -0.162; K 0.108; L -0.089; W -0.26; T -0.182; A -0.104; S -0.074; I -0.09; F -0.191; Q -0.005; D -0.07; P -0.316; V -0.031; N 0.011; C -0.141; R -0.007; G -0.106
A16: P -0.028; V -0.211; Y -0.013; Q 0.03; S 0.129; D -0.029; E 0.178; H 0.108; I -0.071; L -0.051; C -0.075; R 0.096; T -0.124; M 0.124; N 0.16; K -0.129; G 0.035
F18: P -0.224; D -0.227; M -0.043; W -0.142; K -0.044; Q 0.011; E -0.305; R -0.018; N -0.268; A -0.026; G -0.184; T 0.014; Y 0.033; I -0.313; C -0.179; S -0.142
N21: G -0.261; C -0.09; P -0.494; M 0.203; E 0.122; S -0.048; L -0.101; Q -0.247; T 0.009; Y -0.156; V -0.189; F -0.191; A -0.031; K -0.187; D -0.028; W -0.111; H -0.117; I -0.114
P24: L -0.259; Y -0.51; D -0.844; G -0.793; C -0.462; K -0.922; I -0.337; N -0.691; M -0.676; R -0.642; W -0.435; E -0.326; V -0.32; A -0.294; S -0.553; F -0.538; H -0.427; T -0.474
N22: R 0.071; V 0.05; I 0.204; D -0.182; H -0.359; C -0.178; G 0.014; P 0.201; S 0.281
E27: R -0.02; Y -0.391; G -0.033; A 0.076; D -0.18; L -0.194; S -0.105; K -0.054; W 0.021; T -0.185; V -0.071; H -0.59; I -0.261; M 0.082; Q 0.142; P -0.24; N 0.129
S25: P -0.26; F -0.468; Y -0.471
R15: T -0.065; Y -0.2; W -0.133; V -0.151; S -0.012; Q 0.022
A33: C 0.181; H 0.191; F -0.036; R 0.05; Q 0.127; G 0.056; W -0.582; Y -0.531; I 0.038; K -0.126; D -0.337; V -0.169; T 0.029; S -0.025; P -0.84
M32: F -0.547; S -0.564; N -1; K -0.923; H -0.686; Q -0.837; V -0.276; T -0.706; A -0.55; R -0.911; C -0.154; P -1.2; Y -0.212; G -0.672; D -1.37; W -0.511; E -1.01; I -0.244
E34: L -0.054; S -0.162; I -0.211; F -0.392; Y -0.502; G 0.033; N -0.136; P -0.536; W -0.276; D -0.014; C -0.429; K -0.147; A -0.011; M -0.221; V -0.037; T 0.023; H -0.314
Y17: M 0.076; Q -0.089; W -0.299; T -0.058; G -0.075; N 0.041; C -0.192; I -0.155; F 0.025; A -0.16; P -0.963; L -0.159; V -0.204; H -0.045; R -0.114; S -0.227; D -0.16
S23: R -0.127; P -0.003; L -0.07; D -0.131; A 0.041; M -0.019; E 0.089; V -0.052; I -0.522; C -0.004; K -0.009; H 0.187; T -0.071; Q -0.011; W -0.176; G -0.211; N -0.004
E26: S -0.076; G -0.154; W -0.322; L -0.015; M -0.032; A -0.027; C -0.211; K 0.039; D -0.069; F 0.111; V -0.056; R 0.021; Y 0.048; T 0.133; P -0.032; Q -0.003
D19: G -0.089; N 0.07; E 0.054; T -0.104; M -0.033; R -0.009; Q 0.029; C -0.072; H -0.333; I -0.061; P -0.149; K 0.082; F -0.196; A 0.011; S 0.142; L 0.086; V -0.071; Y -0.001
